Entries after “also recorded” stand apart in the source; their conditions may differ.
Columns and labels:
DNase I = assay: Fluorophore-quencher dsDNA nuclease protection fluorescence assay; format: biochemical
Excerpt: FIGS. 8A-8B present the protection of dsDNA from nuclease digestion by various dsDNA binders. FIG. 8A presents a fluorescence assay measuring nuclease activity in digestion of dsDNA, which is diminished in presence of dsDNA binders.
FIGS. 28A-28E: FIG. 28A presents an experimental workflow for testing the effect of a DNA binding agent on clearance and degradation of cfDNA. A DNA-binding monoclonal antibody (mAb) is combined with recombinant nucleosome core particles (NCPs) consisting of a human histone octamer complexed with 20 ng of the Widom601 double-stranded DNA (dsDNA) oligonucleotide. […] Levels of Widom601 were quantified via Taqman qPCR. […]
The ability of DBP's—both known proteins and novel ones generated above—to protect dsDNA from nuclease digestion using a previously-established plate-based fluorescence assay was evaluated Known DBP's that can be tested included anti-dsDNA antibodies (some commercially available, e.g. Abcam ab27156),^20,21 members of the protamine family of DBP's, 22 and a family of small DNA-binding archaeal proteins including Sso7d.^23-25 A commercially available dsDNA probe conjugated to a HEX fluorophore and a quencher was incubated with recombinant DNase 1 and DNase 1L3 (the predominant nucleases in circulation). […]

DNase = assay: Nuclease digestion time-series / electropherogram of dsDNA; format: biochemical; details: dsDNA oligonucleotide

Molecule: protamine sulfate [reference compound]
- protection of dsDNA from nuclease digestion (DNase I): protect it from digestion by nucleases

B1: Sso7d: Small archaeal histone-like DNA-binding protein from Sulfolobus solfataricus, SEQ ID NO: 3 (protein, listed as Saccharolobus solfataricus)
chain: MATVKFKYKGEEKEVDISKIKKVWRVGKMISFTYDEGGGKTGRGAVSEKDAPKELLQMLEKQKK
- protection of dsDNA from nuclease digestion (DNase I): protect it from digestion by nucleases; also recorded: protect dsDNA from DNase I digestion
- protection of dsDNA, digestion time-series (DNase): dsDNA protection

— patent US20240084286A1, “METHODS AND COMPOSITIONS FOR INCREASING THE CONCENTRATION OF CELL FREE DNA” (The Broad Institute, Inc., priority 2021, published 2024)
